Results: the supplement of paper PMC9876800

Test system: peptide library, one residue held at a place counted from the S/T acceptor
Assay: relative phosphorylation of the sub-library (ratio to the mean residue at this position); higher = residue favoured
Conditions: human
Summary of the method: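 Purified recombinant kinases, either human or orthologue constructs, were incubated in 384-well plates with biotinylated degenerate peptide sub-libraries. Each sub-library fixed one residue at one position around a central Ser/Thr. Peptides at 50 μM and 50 μM ATP spiked with γ-32P-ATP were used for 90 min under kinase-specific conditions, and spots on streptavidin membranes were phosphorimaged and quantified by densitometry. Relative sub-library phosphorylation is expressed as a ratio to the mean residue at that position.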

Chain of TGFBR2, construct: aa190-end (P37173 190-567, looked up): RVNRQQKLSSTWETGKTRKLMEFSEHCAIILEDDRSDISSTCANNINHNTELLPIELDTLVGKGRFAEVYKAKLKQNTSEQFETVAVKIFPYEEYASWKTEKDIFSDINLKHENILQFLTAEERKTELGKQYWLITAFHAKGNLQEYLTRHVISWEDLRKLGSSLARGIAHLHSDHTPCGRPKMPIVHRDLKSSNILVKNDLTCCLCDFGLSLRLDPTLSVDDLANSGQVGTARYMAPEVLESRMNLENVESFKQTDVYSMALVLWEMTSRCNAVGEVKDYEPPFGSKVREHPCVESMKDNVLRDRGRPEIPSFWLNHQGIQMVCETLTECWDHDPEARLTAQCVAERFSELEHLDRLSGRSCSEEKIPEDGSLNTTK

TGFBR2, construct: aa190-end (from UniProt P37173)
relative phosphorylation
Conditions | A fixed | D fixed | E fixed | F fixed | G fixed | H fixed | I fixed | K fixed | L fixed | M fixed
at +1 | 0.597 | 0.508 | 0.77 | 1.27 | 0.63 | 0.872 | 1.69 | 0.531 | 1.32 | 2.09
at +2 | 1.09 | 0.616 | 0.466 | 0.826 | 1.36 | 1.16 | 1.1 | 1.26 | 0.584 | 0.826
at +3 | 0.846 | 0.509 | 0.485 | 1.04 | 1.29 | 1.18 | 1.05 | 1.12 | 1.07 | 0.922
at +4 | 0.874 | 0.57 | 0.529 | 0.789 | 1.08 | 1.09 | 1.06 | 1.43 | 0.839 | 0.919
at -1 | 0.646 | 0.715 | 0.775 | 1.02 | 0.67 | 1.04 | 0.757 | 1.03 | 1.38 | –
at -2 | 0.441 | 4.02 | 5.47 | 0.412 | 0.665 | 0.478 | 0.327 | 0.447 | 0.366 | –
at -3 | 0.835 | 1.25 | 1.24 | 0.859 | 1.05 | 0.882 | 0.748 | 0.855 | 0.717 | –
at -4 | 0.987 | 1.01 | 0.907 | 0.952 | 1.08 | 1.13 | 0.851 | 0.91 | 0.814 | –
at -5 | 1 | 0.775 | 0.713 | 0.97 | 1.11 | 1.1 | 0.9 | 1.2 | 0.901 | –
